The data set is described as follows: label from the status in PepcDB records.
“MTRSERKPLLMLMVNMFVVMMGIGLVIPILPYYIEAFGASSVELGLLIAIFSFMQFLLAPFWGRLSDKVGRKPLIAVGMFGFAVAEFIFAFATQFWMLFVSRILAGAFGSAVMPAAMAYVSDRTSEEKRGHGMGLLGASMALGIVVGPGIGGWLAEFSLATPFLFAGFAASFAAIFSLLWLPESLPLEKRKTEVEPVNQFVQMWQAVRSPIGFLLFLVFGLSFGLANFQTIFGIFALHRFHYNPSEVGFIMVLTGIVGAIAQGSLVGRLTERYGEEKVVLGSLSLSGIGFLIMMLAFNYWTVIATTCLFFLGNSILRPAVQSFLSKMAGDQQGMIMGLNNSILSLGNVVGALLAGLLFEWNMFLPYTVGAFVMFASLGATFRWLSKRASQGKHPEKSSP”: the protein production entry is on record as “failed”.

With “MTLAPRHLRIEQRGRVLQVLLDNPPANFLTTAVMQELADLLEDLEQRQDIGAVILSGAADGVFLTHFDVDEIERAVAPITFSMPAWLTRLLLESESLLRHLPGARKLLRRTLLAGVADMNLFHEVTAHMRRMDKVFIAAINGLALGGGCELALACDLRLMAEDDQVERFLGQPEVLIGLIPGGGGTQMLARSLGVARALELCLEGQLLEPRQALALGLVNGLAPAEELLEAADALAQRLSRRSPQAVRLIKRSIYQAASRDWTEGMASEKAGFLSAASQGNTRRAMREYIERVRTITREERPFRRADFDDLTEGNAID”, the protein production entry is given as “failed”.

Take “MIWMAEIEGIYTIWLREMKRFFRYRSRIVTSIVTPLLWLIIFGTGLGAAVRFGGVPGGYKAFIYPGIIGQTVLFTSIFSGVSVIIDRQYGFLKEILVAPISRESMVVGKALGISTASMIQAAILLALSFIVGITMSPQCFIVSMVIALIISMGLGGLGLVIAAFTDSMEGFNLIMSFIVLPIFLLSGALFPITGLPAWLQGAVYINPLTYAVDALRFTILRRSVLPLEVNLLVITIFAVIAVLIAAFLFNRKEQNLM”: the protein production result is reported as “failed”.

For the sequence “TGEREYIKKLEPMLKELGWWGKAKDENGNEVQLGSPRRLRTILRTNKITAYHAARYAQQMENVDEQPYWRYVAVNDSRTRASHLALHGKIYRADDPIWQTMYPPNDWGCRCRVEALS”, the protein production result is “failed”.

Regarding “MDYSNTYGAYGGGGFLPESPARTGGNASTRFGVGSGSSLRDQRRSLLPVRVADLVHAVHDPVTNTFVLRDENEHQSITISEGSIVKVVAYVEELREQPLDLLWLLDDRSGEMIWARMASTSSSSLAALEQSGILVRVFGQLLEVDGRRVLNVRAIRKADGEVELRYHENLCQLSKLQLIRGYPTAGNALAGASSSPASPKAGPSKAVHRSSLGSGAPKEMAQQAPGLEIPAAFPPEHFKVLKCIREETARNRDAMLTDIAQRIALSTTKVRGICDALQNEGHIYCTLDDDTFRASSS”, the protein production entry is recorded as “not failed”.

For the sequence “VGKLKIYFGFAAGVGKTYAMLSDAKDQLAAGVDVVAGYIEPHAREETLRMLEGIPIIPPKAINHKNIALKEFDLDEALKRKPELILVDELAHTNASGVRNKKRFQDVEELLQAGIDVYTTVNVQHIESLNDIVEGITKVAVRETIPDYVFDEADRVKLIDIEPDELLKRLEQGKIYQPARAKTAMQNFFTRENLKLLREIAMRKAADRISHEYDQTGIYPE”, the protein production entry is listed as “not failed”.

On to “MTNTPRQGATLAVLIDADNAAPAIVEGLLAEVAKYGVAAVKRIYGDWTRPNLSGWKDRLLAHSIQPIQQFRYTVGKNATDSAMIIDAMDLLYTGRFDGFCIVSSDSDFTRLASRIREQGLTVYGFGERKTPKPFVTACDKFIYSDVLRADADSDSDSETGSAPARKRTTQELRQDSRLVRLLQSASQAVSDEDGWSTLGGIGNYIAKQAPEFDSRNYGYGKLSELVTATNLFEVETRNGGNNKTLWVRLKKRNKGEGGGQPQPAQPQQQQQPQQQGQSSQPSQSQQPSQQAQPQQQRPAPAPARPVQPAPEPVAVIPATEPARVTEEEDDDAAGSASTLIQEAVEVSTERPKAGGKRGKRPDVTLSDTPWPIDQSVFSAPGATVLSAQVDVPEETKAAAPAEEAKKPAKKKPAAKKAAPRKRAPAKKAAAAE”, for which the protein production entry is on record as “failed”.

Take “TKIKSVRTRVWNWTGPTVPPQGNFCTNASDALWIQGDAMASFRFHQWLTCEVETEDGTIGIGNAALAPNVVKQAIDEWYAPLVIGEDPFDYAYLWEKMYRRTHAWGRKGIGMTAISAIDIAIWDLMGKLVGKPVFKLLGGRTKEKIPVYYSKLYADSIPAMQAEAEEAQKHGYQGYKTRFGYGPKDGPAGMRENLKRVEALREVLGYDVDLMLECYMGWNLDYTKRMLPKLERFEPRWLEEPVIADDVAGYAELNAMGIVPISGGEHEFSVMGCAELINRKAVSVLQYDTNRVGGITAAQKINAIAEAAQIIVIPHAGQMHNYHLTMANMNCPISEYFPVFDVEVGNELFYYIFDGDPEAVDGYLQLDDDTPGLGITISDAHLKHFEITE”: the protein production result is given as “not failed”.

Values taken from a protein production outcome set (Wang et al. 2014).
